Experimental data taken from article PMC5897841, “Development of a multipurpose scaffold for the display of peptide loops” (Protein Engineering, Design and Selection, 2017).

Assays:
[1] = target: cRAD-TPX2_((7–43)) display protein (Pyrococcus furiosus | human) (UniProt O74036); assay: SPR; Biacore T100, CM5, peptides or cRAD display proteins immobilised through their cysteine (240-400 RU), kinase as analyte 2.5 nM-2.5 μM, 25°C, 10 mM HEPES pH 7.4, 500 mM NaCl, 0.05% P20; 1:1 steady-state affinity model; CK2α data analysed at 200 s post-injection
[2] = target: Alexa Fluor 488-labeled cRAD-TPX2_((7–43)) display protein (Pyrococcus furiosus | human) (UniProt O74036); assay: fluorescence polarisation; fluorescence anisotropy, direct titration of kinase (CK2α 2 nM-2 μM; Aurora A D274N 2 nM-1.5 μM) into labelled peptide or display protein; 10 mM HEPES pH 7.4, 500 mM NaCl, 1 mM DTT, 0.05% P20; room temperature; 1:1 model

Kd [1]: 168 nM | Kd [2]: 98 nM
B1: Aurora A_(D274N) kinase domain (domain or fragment)
chain: ESKKRQWALEDFEIGRPLGKGKFGNVYLAREKQSKFILALKVLFKAQLEKAGVEHQLRREVEIQSHLRHPNILRLYGYFHDATRVYLILEYAPLGTVYRELQKLSKFDEQRTATYITELANALSYCHSKRVIHRDIKPENLLLGSAGELKIANFGWSVHAPSSRRTTLCGTLDYLPPEMIEGRMHDEKVDLWSLGVLCYEFLVGKPPFEANTYQETYKRISRVEFTFPDFVTEGARDLISRLLKHNPSQRPMLREVLEHPWITANSSKPSNCQNKESASKQS
